Publication PMC9969015

Target: S-RBD protein with C-terminal human Fc-tag (receptor-binding domain of SARS-CoV-2 S protein)
Test: flow cytometry on cells
Details: 100 μg/ml S-RBD, 1 mM Mn2+, β1-KO 293 T cells, read off a plot

Q: For “wild-type α4β1 integrin expressed in β1-KO 293 T cells (from UniProt P13612;P05556) β1:D130A”, which response (parent: est. 1.5) is on record?
A: The response was 0.95 relative MFI.

Q: For “wild-type α4β7 integrin expressed in β1-KO 293 T cells (from UniProt P13612;P26010) β7:D119A”, which response (parent: est. 2.0) is on record?
A: The response was 1.2 relative MFI.

Q: For “wild-type α5β1 integrin expressed in β1-KO 293 T cells (from UniProt P08648;P05556) β1:D130A”, which response (parent: est. 1.2) is on record?
A: Its response is 0.93 relative MFI.

Q: How did the response (parent: est. 1.3) turn out when “wild-type αLβ2 integrin expressed in β1-KO 293 T cells (from UniProt P20701;P05107) αL:D137A” was run?
A: The response was 0.97 relative MFI.
